Reference: PMC8142254, “The mycobacterial proteasomal ATPase Mpa forms a gapped ring to engage the 20S proteasome” (The Journal of Biological Chemistry, 2021)

B1: Mycobacterium tuberculosis proteasomal ATPase Mpa, full-length (1–609) (enzyme)
chain: MGESERSEAFGIPRDSPLSSGDAAELEQLRREAAVLREQLENAVGSHAPTRSARDIHQLEARIDSLAARNSKLMETLKEARQQLLALREEVDRLGQPPSGYGVLLATHDDDTVDVFTSGRKMRLTCSPNIDAASLKKGQTVRLNEALTVVEAGTFEAVGEISTLREILADGHRALVVGHADEERVVWLADPLIAEDLPDGLPEALNDDTRPRKLRPGDSLLVDTKAGYAFERIPKAEVEDLVLEEVPDVSYADIGGLSRQIEQIRDAVELPFLHKELYREYSLRPPKGVLLYGPPGCGKTLIAKAVANSLAKKMAEVRGDDAHEAKSYFLNIKGPELLNKFVGETERHIRLIFQRAREKASEGTPVIVFFDEMDSIFRTRGTGVSSDVETTVVPQLLSEIDGVEGLENVIVIGASNREDMIDPAILRPGRLDVKIKIERPDAEAAQDIYSKYLTEFLPVHADDLAEFDGDRSACIKAMIEKVVDRMYAEIDDNRFLEVTYANGDKEVMYFKDFNSGAMIQNVVDRAKKNAIKSVLETGQPGLRIQHLLDSIVDEFAENEDLPNTTNPDDWARISGKKGERIVYIRTLVTGKSSSASRAIDTESNLGQYL
notes: Mpa (mycobacterial proteasome ATPase), Mycobacterium tuberculosis, full-length, residues 1-609; Homohexamer; In the cryo-EM model the coiled-coil domains and two of the six AAA domains are not resolved; also called mycobacterial proteasome ATPase; WT Mpa

Tests used:
[1] = molecular target: Mycobacterium tuberculosis proteasomal ATPase Mpa, full-length (1–609) (Mycobacterium tuberculosis) (UniProt P9WQN5); experiment: not stated; stoichiometry of the in vitro assembled Pup–FabD:Mpa complex; how it was found is not told
[2] = molecular target: the molecule itself; experiment: cryo-EM structure

Molecule | stoichiometry N (Pup–FabD per Mpa hexamer) [1] | stoichiometry N [2]
Pup–FabD (Pup translationally fused to the N terminus of malonyl CoA-acyl carrier protein transacylase) | 1 | 
B1 |  | 6
